“And” between values parts separate entries of the source, which are not always exact repeats. Identical values can stand only once.
Columns and labels:
[1] = molecular target: monoclonal mouse antibody aE11 (full IgG) (mouse); assay: SPR; aE11 IgG amine-coupled to a CM5 chip (~7000 RU), monomeric C9 as analyte; Biacore T200, 25 °C; 10 mM HEPES-NaOH pH 7.2, 150 mM NaCl, 1 mM EDTA, 0.005% P20; multi-cycle kinetics; off rate from a simple exponential decay (1:1 binding model); n = 2
aE11 IgG (mouse) = assay: SPR; aE11 IgG amine-coupled to a CM5 chip (~7000 RU), monomeric C9 as analyte; Biacore T200, 25 °C; 10 mM HEPES-NaOH pH 7.2, 150 mM NaCl, 1 mM EDTA, 0.005% P20; multi-cycle kinetics; off rate from a simple exponential decay (1:1 model); steady state not reached
[2] = molecular target: polyC9 (in vitro homo-oligomerised human C9, wild type) (human); assay: cryo-EM structure; aE11-Fab mixed with polyC9 in stoichiometric quantities; 1 mg/ml in 10 mM HEPES, 50 mM NaCl, pH 7.2; symmetry expansion and focused refinement of three C9 protomers and two Fab variable regions

Chain of monoclonal mouse antibody aE11 (full IgG) (mouse) (heavy, as listed by the source, chain 1 of 2): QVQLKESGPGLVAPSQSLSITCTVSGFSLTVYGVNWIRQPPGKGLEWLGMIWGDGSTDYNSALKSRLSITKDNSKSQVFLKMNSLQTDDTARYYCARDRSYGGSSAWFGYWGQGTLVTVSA
Chain of monoclonal mouse antibody aE11 (full IgG) (mouse) (light, as listed by the source, chain 2 of 2): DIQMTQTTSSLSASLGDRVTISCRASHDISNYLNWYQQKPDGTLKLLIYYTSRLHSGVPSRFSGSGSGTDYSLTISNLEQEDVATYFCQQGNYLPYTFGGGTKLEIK
Chain of aE11 IgG (mouse) (heavy, as listed by the source, chain 1 of 2): as the sequence (heavy, as listed by the source, chain 1 of 2) above
Chain of aE11 IgG (mouse) (light, as listed by the source, chain 2 of 2): as the sequence (light, as listed by the source, chain 2 of 2) above
Chain of human complement C9, wild type, monomeric (P02748 22-559): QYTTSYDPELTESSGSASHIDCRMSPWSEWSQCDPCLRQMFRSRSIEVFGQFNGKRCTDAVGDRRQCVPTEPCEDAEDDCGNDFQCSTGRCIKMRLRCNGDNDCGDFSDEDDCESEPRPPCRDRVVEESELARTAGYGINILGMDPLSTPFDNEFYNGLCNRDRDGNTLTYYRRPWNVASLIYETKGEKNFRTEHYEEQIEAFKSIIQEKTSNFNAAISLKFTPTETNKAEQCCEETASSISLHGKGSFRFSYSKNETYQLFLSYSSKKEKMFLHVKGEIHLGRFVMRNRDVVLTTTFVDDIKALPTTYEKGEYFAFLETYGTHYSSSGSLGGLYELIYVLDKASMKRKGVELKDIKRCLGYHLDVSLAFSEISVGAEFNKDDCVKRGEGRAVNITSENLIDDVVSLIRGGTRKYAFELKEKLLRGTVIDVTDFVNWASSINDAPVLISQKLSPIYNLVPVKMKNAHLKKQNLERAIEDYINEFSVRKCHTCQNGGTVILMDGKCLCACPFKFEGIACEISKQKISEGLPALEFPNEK
Chain of monomeric human C9, wild type (recombinant) (P02748 22-559): as above

Substance | koff [1] | koff (aE11 IgG (mouse)) [s⁻¹] | also measured
human complement C9 R65Q, monomeric (from UniProt P02748 22-559) (natural protein) | 0.000214 s⁻¹ and 8.63e-05 s⁻¹ | – | –
monomeric human C9, wild type (recombinant) (from UniProt P02748 22-559) (natural protein) | – | 0.0001 | Kd (aE11 IgG (mouse)): 0.5 to 2 µM
human complement C9 V68E, monomeric (from UniProt P02748 22-559) (natural protein) | 3.11e-05 s⁻¹ and 3.58e-05 s⁻¹ | – | –
monomeric human C9 R65Q (from UniProt P02748 22-559) (natural protein) | – | 0.0001 | –
monomeric human C9 P72E (from UniProt P02748 22-559) (natural protein) | – | 0.0001 | fold reduction of binding against wild-type monomeric C9 (aE11 IgG (mouse)): 2 fold
polyC9 (in vitro homo-oligomerised human C9, wild type) (complex) | – | – | stoichiometry N [2]: 22
monomeric human C9 V68E (from UniProt P02748 22-559) (natural protein) | – | 0.0001 | fold reduction of binding against wild-type monomeric C9 (aE11 IgG (mouse)): 2 fold
disulphide-trapped C9 variant (F262C/V405C) (from UniProt P02748 22-559) (natural protein) | – | 0.0001 | –
human complement C9, wild type, monomeric (from UniProt P02748 22-559) (natural protein) | 0.000169 s⁻¹ and 0.000183 s⁻¹ | – | –
human complement C9 F262C/V405C, disulphide-trapped, monomeric (from UniProt P02748 22-559) (natural protein) | 0.000267 s⁻¹ and 0.000353 s⁻¹ | – | –
human complement C9 P72E, monomeric (from UniProt P02748 22-559) (natural protein) | 0.000106 s⁻¹ and 6.14e-05 s⁻¹ | – | –

Reference: paper PMC9838529
